This is an account of results in the supplement of paper PMC10724198.

± gives the standard deviation of the averaged measurements.
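Further: PSI is a weighted mean of sequencing reads over stability bins, variants kept only with over 10 reads, mCherry proximal and sfGFP distal, peptide attached via GGGS linker.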

The series deals with Saccharomyces cerevisiae. Put plainly: protein stability index of tFT-peptide fusion (C-terminal peptide) (PSI (0-1 scale)); higher = more stable (slower turnover). As to conditions: genetic background: wild type; temperature: 30 C.
As to SNRSAPWSRFSL, the protein stability index is 0.68 ± 0.038.
Regarding SNTKLIGLIVIG, the protein stability index was 0.539 ± 0.043.
In turn, SNTKPTCSNQQS showed a protein stability index of 0.688 ± 0.077.
Under SPAQLSYLFPAP stands 0.7928 ± 0.0039; under SPARLRHSLSLP, 0.723 ± 0.014.
Under SPASPPPPSPLL stands 0.695 ± 0.028; under SPCRAGRPAGLR, 0.729 ± 0.071.
Under SPCSSDPLYSFA stands 0.762 ± 0.069; under SPEPSFPPLLLP, 0.715 ± 0.015; under SPFPAWPIPASV, 0.612 ± 0.036.
In the case of SPFPSPVLPPHT, the protein stability index came to 0.7153 ± 0.006.
SPGPRLSTRLRQ displayed a protein stability index of 0.701 ± 0.077.
SPIRLPATSPSR gave a protein stability index of 0.639 ± 0.046.
SPKDKARMQKQS returned a protein stability index of 0.602 ± 0.063.
Under SPLFFPSSPPYP stands 0.751 ± 0.023; under SPLHLFHPPLLH, 0.729 ± 0.023.
Under SPLNLRIPGAPT stands 0.675 ± 0.034.
Under SPLPHRLFPFWS stands 0.79 ± 0.015; under SPLPLLRPPSSH, 0.593 ± 0.047; under SPLPSSPRSVPP, 0.744 ± 0.094.
In turn, SPLPYTPPLRAF yielded a protein stability index of 0.5238 ± 0.0029.
Under SPLSLPSPATFP stands 0.688 ± 0.05; under SPLSRSRPKSYL, 0.75 ± 0.072.
Under SPLSSSDGSAAI stands 0.73 ± 0.022; under SPPALPPFLAPL, 0.72 ± 0.1.
Under SPPCPPPHPHPP stands 0.597 ± 0.012.
SPPCRTYFAECD registered a protein stability index of 0.713 ± 0.053.
SPPGPNQVARPP displayed a protein stability index of 0.6873 ± 0.0057.
Under SPPHPPPRPPLL stands 0.733 ± 0.041.
As to SPPLPPPSPTPP, the protein stability index worked out at 0.699 ± 0.016.
Under SPPLSLPPPGQS stands 0.671 ± 0.073.
In turn, SPPLVFPTLLPL had a protein stability index of 0.7101 ± 0.0029.
Under SPPPHPPLRFLP stands 0.667 ± 0.049; under SPPPHSTPSSTG, 0.712 ± 0.054; under SPPPIPPPPPSR, 0.726 ± 0.042.
As to SPPPLPPPLSRP, the protein stability index came out at 0.638 ± 0.067.
In turn, SPPPLPPPTLPT returned a protein stability index of 0.791 ± 0.084.
Under SPPPLPPTPPPL stands 0.7135 ± 0.0055; under SPPPLPSPSPPP, 0.687 ± 0.044; under SPPPPLHPALPA, 0.656 ± 0.083.
SPPPPPPAPPPP gave a protein stability index of 0.664 ± 0.042.
In turn, SPPPPPPPLPPA yielded a protein stability index of 0.731 ± 0.037.
Under SPPPRHLLSPRH stands 0.697 ± 0.0077.
Regarding SPPPSSPPAPPR, the protein stability index was 0.717 ± 0.11.
Under SPPRLPTPPPLR stands 0.705 ± 0.022; under SPPRPPAPPSPT, 0.701 ± 0.014.
SPPRPPCLPLTP came in with a protein stability index of 0.713 ± 0.048.
SPPSPLALSLRF returned a protein stability index of 0.707 ± 0.025.
Under SPPSPLYFCSRF stands 0.661 ± 0.015.
Under SPPSPPALTPSP stands 0.643 ± 0.048; under SPRLDPLFRSPP, 0.712 ± 0.017.
For the sequence SPRNIVFQPLSP, the protein stability index was 0.622 ± 0.069.
Under SPRRPPQHPTLL stands 0.65 ± 0.016.
Under SPRTVCPELHFI stands 0.691 ± 0.044; under SPRVLSLLLRSM, 0.5811 ± 0.0036.
With SPRWAPPLPAWP, the protein stability index is 0.712 ± 0.014.
Under SPSLSFPGIPLF stands 0.673 ± 0.052; under SPSPALPPRIRF, 0.818 ± 0.15; under SPSPHSPHPTPH, 0.738 ± 0.085.
Under SPSPPPRRYLPL stands 0.757 ± 0.073; under SPSPQPLRRAHP, 0.698 ± 0.043; under SPSPSPPPAISI, 0.657 ± 0.015.
SPSSRTTNTHPA showed a protein stability index of 0.694 ± 0.11.
The sequence SPTAHAPALPSP displayed a protein stability index of 0.692 ± 0.049.
Under SPTPPTAPPSPL stands 0.699 ± 0.015; under SPTRNLPPFPPP, 0.723 ± 0.054; under SPVPPSPAPLLI, 0.673 ± 0.018.
Under SPVPRIRPPPLL stands 0.699 ± 0.053; under SPVSPTSNSPAC, 0.649 ± 0.085.
Turning to SQCNRGSWRSPS, the protein stability index turned out to be 0.645 ± 0.0073.
For SQMCHREESVTV, the protein stability index came out at 0.712 ± 0.004.
Sequence SQPRRELGRPRG had a protein stability index of 0.662 ± 0.022.
Under SQSEGTLELINK stands 0.679 ± 0.043; under SQTKRINSEKNN, 0.654 ± 0.039; under SRALNAPAPFLP, 0.747 ± 0.044.
Under SRELPPPLLRSS stands 0.692 ± 0.072; under SRFAGVGGGGAR, 0.667 ± 0.0071; under SRFISTLPGLLA, 0.708 ± 0.035.
Under SRFRSGVAALPS stands 0.644 ± 0.033; under SRFWLCGKCLWH, 0.7051 ± 0.0045.
